IntAct's records for PubMed 22357847

Tests used:
[1] = target: rae1l_rat Rae1 (UniProt Q3SWS8)
[2] = target: rae1_caeel rae-1 (UniProt Q93454)
[3] = target: rae1l_rat Rae1 (UniProt Q3SWS8); remark: listed apart in the source

Sequence of UniProt Q3SWS8 (Q3SWS8 whole entry): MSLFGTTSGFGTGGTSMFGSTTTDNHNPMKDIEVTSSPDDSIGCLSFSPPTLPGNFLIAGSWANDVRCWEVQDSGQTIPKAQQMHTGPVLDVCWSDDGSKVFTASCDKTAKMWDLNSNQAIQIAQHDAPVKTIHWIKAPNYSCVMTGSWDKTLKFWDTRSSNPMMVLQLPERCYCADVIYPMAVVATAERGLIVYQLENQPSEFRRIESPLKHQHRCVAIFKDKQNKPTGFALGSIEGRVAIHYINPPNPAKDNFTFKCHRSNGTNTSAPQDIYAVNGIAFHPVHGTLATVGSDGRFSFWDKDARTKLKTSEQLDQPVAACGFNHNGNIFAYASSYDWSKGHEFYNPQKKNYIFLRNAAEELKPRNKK
Sequence of UniProt Q93454 (Q93454 whole entry): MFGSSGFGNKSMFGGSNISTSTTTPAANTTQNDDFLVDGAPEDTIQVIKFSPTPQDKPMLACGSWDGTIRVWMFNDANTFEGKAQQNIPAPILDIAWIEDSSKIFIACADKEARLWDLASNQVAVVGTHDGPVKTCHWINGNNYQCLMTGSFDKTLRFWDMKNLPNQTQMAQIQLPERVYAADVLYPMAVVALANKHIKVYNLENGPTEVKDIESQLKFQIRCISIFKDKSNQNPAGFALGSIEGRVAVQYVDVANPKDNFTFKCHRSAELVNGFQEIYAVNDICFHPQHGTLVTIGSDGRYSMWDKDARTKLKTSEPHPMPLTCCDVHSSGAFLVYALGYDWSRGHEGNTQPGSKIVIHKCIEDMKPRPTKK

Substance | effect of a mutation on the interaction [1] | effect of a mutation on the interaction [2] | effect of a mutation on the interaction [3]
E3 ubiquitin-protein ligase rpm-1 (Caenorhabditis elegans), Q17551 R2088A | disrupting interaction strength | – | –
E3 ubiquitin-protein ligase rpm-1 (Caenorhabditis elegans), Q17551 V2084A;I2087A;R2088A | decreasing interaction strength | disrupting interaction strength | disrupting interaction strength
